In the series the test system is Escherichia coli TOP10. Kind of series: shrunken log2 fold change of peptide-encoding DNA abundance (4.5 h post-induction vs induction); higher = less antimicrobial activity (less host growth inhibition). Conditions: time post-induction: 4.5 h; library: site-saturation at positions 5, 18, 19, 20.
Consider RRIRWRPPRLPRPRPRPCMRPRP, for which the “shrunken log2 fold change” value was 0.506. The result for RRIRARPPRLPRPRPRPEVYPRP reads -0.00104. Next, RRIRVRPPRLPRPRPRPHAGPRP: 0.108; RRIRARPPRLPRPRPRPQKPPRP: 0.117; RRIRCRPPRLPRPRPRPDVTPRP: 0.0172. Next, RRIRMRPPRLPRPRPRPGMCPRP: 0.19. Take RRIRFRPPRLPRPRPRPMMIPRP: the “shrunken log2 fold change” value was -0.018.

As for RRIRFRPPRLPRPRPRPKKFPRP, the “shrunken log2 fold change” value is -0.128. The result for RRIRRRPPRLPRPRPRPQSRPRP reads 0.00841; that for RRIRTRPPRLPRPRPRPCMLPRP, 0.0676; that for RRIRGRPPRLPRPRPRPELYPRP, 1.14. The result for RRIRCRPPRLPRPRPRPAWCPRP reads 0.128; that for RRIRHRPPRLPRPRPRPMTMPRP, -0.257; that for RRIRMRPPRLPRPRPRPLYPPRP, -0.151. The result for RRIRYRPPRLPRPRPRPSERPRP reads -0.417; that for RRIRMRPPRLPRPRPRPVEKPRP, 1.01; that for RRIRCRPPRLPRPRPRPCHKPRP, -0.0857. RRIRCRPPRLPRPRPRPCMEPRP: the “shrunken log2 fold change” value is -0.681. RRIRHRPPRLPRPRPRPKSDPRP: the “shrunken log2 fold change” value was -0.255.

In the case of RRIRQRPPRLPRPRPRPITPPRP, the “shrunken log2 fold change” value was -0.0347. As for RRIRLRPPRLPRPRPRPEVLPRP, the “shrunken log2 fold change” value was -0.0871. The result for RRIRMRPPRLPRPRPRPHQEPRP reads 0.018. Next, RRIRGRPPRLPRPRPRPCPLPRP: -0.0214; RRIRRRPPRLPRPRPRPPCMPRP: 0.404; RRIRMRPPRLPRPRPRPAKAPRP: 0.0749. In the case of RRIRIRPPRLPRPRPRPMLKPRP, the “shrunken log2 fold change” value was -0.282.

Take RRIRFRPPRLPRPRPRPIRIPRP: the “shrunken log2 fold change” value was -0.223. Next, RRIRPRPPRLPRPRPRPSHGPRP: 0.108; RRIRSRPPRLPRPRPRPALDPRP: 0.137. The result for RRIRCRPPRLPRPRPRPGFGPRP reads 0.399; that for RRIRYRPPRLPRPRPRPKFKPRP, -0.319. The result for RRIRDRPPRLPRPRPRPFKPPRP reads 0.00312; that for RRIRGRPPRLPRPRPRPLINPRP, 0.116. As to RRIRPRPPRLPRPRPRPLGNPRP, the “shrunken log2 fold change” value is -0.173.

In the case of RRIRYRPPRLPRPRPRPQQMPRP, the “shrunken log2 fold change” value was -0.232. The result for RRIRGRPPRLPRPRPRPRHHPRP reads 2.5; that for RRIRLRPPRLPRPRPRPDQTPRP, 0.0206. The result for RRIRNRPPRLPRPRPRPYPFPRP reads 0.0247; that for RRIRWRPPRLPRPRPRPPSCPRP, 0.0112. Next, RRIRWRPPRLPRPRPRPSWGPRP: 0.121. For the sequence RRIRMRPPRLPRPRPRPLTSPRP, the “shrunken log2 fold change” value came to 0.0851.

In the case of RRIRMRPPRLPRPRPRPIATPRP, the “shrunken log2 fold change” value was -0.0165. RRIRARPPRLPRPRPRPWKFPRP: the “shrunken log2 fold change” value was -0.00178. The result for RRIRQRPPRLPRPRPRPYWTPRP reads -0.496; that for RRIRWRPPRLPRPRPRPVRPPRP, 0.305; that for RRIRMRPPRLPRPRPRPCEPPRP, 0.234. With RRIRMRPPRLPRPRPRPLMYPRP, the “shrunken log2 fold change” value was -0.295. Turning to RRIRNRPPRLPRPRPRPLPFPRP, the “shrunken log2 fold change” value was -0.153. The result for RRIRERPPRLPRPRPRPLTMPRP reads -0.308. The result for RRIRARPPRLPRPRPRPKTEPRP reads 0.38; that for RRIRPRPPRLPRPRPRPYYDPRP, -0.745. Regarding RRIRRRPPRLPRPRPRPIVIPRP, the “shrunken log2 fold change” value was -0.125. With RRIRHRPPRLPRPRPRPNAEPRP, the “shrunken log2 fold change” value was -0.0088. Next, RRIRQRPPRLPRPRPRPMGRPRP: -0.00151; RRIRARPPRLPRPRPRPYYLPRP: -0.539. Next, RRIRTRPPRLPRPRPRPMIQPRP: -0.146; RRIRMRPPRLPRPRPRPQYMPRP: -0.969. For RRIRSRPPRLPRPRPRPQKPPRP, the “shrunken log2 fold change” value is -0.0986. In the case of RRIRMRPPRLPRPRPRPIIKPRP, the “shrunken log2 fold change” value was -0.265. The result for RRIRCRPPRLPRPRPRPHYPPRP reads -0.902. Consider RRIRRRPPRLPRPRPRPCEKPRP, for which the “shrunken log2 fold change” value was -0.0914. For the sequence RRIRERPPRLPRPRPRPNSGPRP, the “shrunken log2 fold change” value is -0.463. The result for RRIRRRPPRLPRPRPRPLQHPRP reads 0.387. The result for RRIRPRPPRLPRPRPRPLAAPRP reads 0.767. The result for RRIRVRPPRLPRPRPRPNPSPRP reads 0.0073; that for RRIRKRPPRLPRPRPRPGMFPRP, -0.126. Regarding RRIRNRPPRLPRPRPRPEVAPRP, the “shrunken log2 fold change” value was determined as 0.418. The result for RRIRTRPPRLPRPRPRPEHPPRP reads 0.716; that for RRIRLRPPRLPRPRPRPVKTPRP, -0.0565; that for RRIRKRPPRLPRPRPRPAGHPRP, 0.0606. Next, RRIRPRPPRLPRPRPRPRQDPRP: 0.351; RRIRWRPPRLPRPRPRPEHMPRP: -0.122.

Regarding RRIRDRPPRLPRPRPRPELYPRP, the “shrunken log2 fold change” value was determined as 1.13.

On to RRIRYRPPRLPRPRPRPNPYPRP, for which the “shrunken log2 fold change” value is -0.0428. On to RRIRGRPPRLPRPRPRPHQCPRP, for which the “shrunken log2 fold change” value was -0.0129. Next, RRIRGRPPRLPRPRPRPGPFPRP: 0.218; RRIRERPPRLPRPRPRPTPPPRP: 0.491; RRIRCRPPRLPRPRPRPAIQPRP: -0.0767. The result for RRIRPRPPRLPRPRPRPCKYPRP reads -0.499; that for RRIRARPPRLPRPRPRPVGKPRP, 0.196. Next, RRIRGRPPRLPRPRPRPYKFPRP: -0.138; RRIRIRPPRLPRPRPRPLDKPRP: -0.141; RRIRLRPPRLPRPRPRPQTMPRP: -0.0345. Take RRIRDRPPRLPRPRPRPSYVPRP: the “shrunken log2 fold change” value was -0.206.

For RRIRMRPPRLPRPRPRPYYPPRP, the “shrunken log2 fold change” value is -0.159. Next, RRIRRRPPRLPRPRPRPVDDPRP: -0.0484; RRIRMRPPRLPRPRPRPIGYPRP: -0.0789; RRIRKRPPRLPRPRPRPCYKPRP: 0.0747. Next, RRIRDRPPRLPRPRPRPLIQPRP: 0.365; RRIRDRPPRLPRPRPRPRCKPRP: -0.0316. In the case of RRIRCRPPRLPRPRPRPNHPPRP, the “shrunken log2 fold change” value was -0.153.
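Also: peptides expressed intracellularly from a pBAD plasmid library in pooled LB shake-flask culture, induced with 0.3% L-arabinose, DNA abundance read by NGS, three biological replicates, DESeq2 with apeglm shrinkage.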
